Laboratory results as given in paper PMC3427169, “Interaction of Mycobacterium tuberculosis RshA and SigH Is Mediated by Salt Bridges” (PLoS ONE, 2012).

Columns and labels:
[1] = target: SigH (Mycobacterium tuberculosis) (UniProt P9WGH8); conditions: cited from earlier work
[2] = target: T1, Mycobacterium tuberculosis SigH, 6xHis-tagged (pET29a) (Mycobacterium tuberculosis H37Rv, UniProt P9WGH9 1-216); test: native gel or EMSA; metal free RshA mixed with SigH at equimolar concentrations (3 µM each in the text, 5 µM each in the legend), 50 mM Tris HCl pH 8.0, 100 mM NaCl, 0.01% Triton X-100, 25°C; native gel pH 8.8 and SDS-PAGE, Coomassie; conditions: both partners purified
T1 construct: no tag removal is told; also called WT SigH; 6xHis:SigH; not shown: His6, C-terminal, kept
T1 sequence (P9WGH9 whole entry): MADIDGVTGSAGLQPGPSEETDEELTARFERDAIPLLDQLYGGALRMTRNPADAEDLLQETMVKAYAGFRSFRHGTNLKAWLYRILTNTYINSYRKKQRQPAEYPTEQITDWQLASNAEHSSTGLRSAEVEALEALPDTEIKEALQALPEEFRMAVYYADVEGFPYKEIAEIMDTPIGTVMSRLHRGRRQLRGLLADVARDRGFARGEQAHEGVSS

SigH (Mycobacterium tuberculosis), sequence (P9WGH8 whole entry): as the sequence (P9WGH9 whole entry) above

RshA (from UniProt P9WJ68)
Kd [1]: 15 nM

B1: Mycobacterium tuberculosis anti-sigma factor RshA, 6xHis-tagged (pET29a) (natural protein)
chain: MSENCGPTDAHADHDDSHGGMGCAEVIAEVWTLLDGECTPETRERLRRHLEACPGCLRHYGLEERIKALIGTKCRGDRAPEGLRERLRLEIRRTTIIRGGP
notes: also called WT RshA; 6xHis:RshA; not shown: His6, C-terminal, kept
binding result [2]: binds
